T1: HR1C peptide of SARS-CoV-2 (residues 937-955), His6-tagged (SARS-CoV-2, UniProt P0DTC2)
T1 chain: SLSSTASALGKLQDVVNQN


Target: T1, HR1C peptide of SARS-CoV-2 (residues …)
Experiment: BLI

| Binder | binding result |
| --- | --- |
| 3D1 mutant Y93A (light chain, CDRL3) (antibody, V domains shown) VH: QVQLVQSGSELKKPGASVRISCKASGYSFTSLSMNWVRQAPGQGLEWMGWISTKSGDPTYAQAFTGRFVFSLDTSVNTAYLQINSLEAGDTAVYYCARGQPPVGWTFDYWGQGTLVTVSS VL: QSALTQPPSASGSPGQSVTISCTGTSSDVGGYNYVSWYQQHPGKAPKLIIYEVSKRPSGVPDRFSGSKSGNTASLTVSGLQAEDEADYYCSSATSSSTLVFGGGTKLTVL | no binding |
| 3D1 mutant W105A (heavy chain, CDRH3) (antibody, V domains shown) VH: QVQLVQSGSELKKPGASVRISCKASGYSFTSLSMNWVRQAPGQGLEWMGWISTKSGDPTYAQAFTGRFVFSLDTSVNTAYLQINSLEAGDTAVYYCARGQPPVGATFDYWGQGTLVTVSS VL: QSALTQPPSASGSPGQSVTISCTGTSSDVGGYNYVSWYQQHPGKAPKLIIYEVSKRPSGVPDRFSGSKSGNTASLTVSGLQAEDEADYYCSSYTSSSTLVFGGGTKLTVL | no binding |
| 3D1 mutant N35A (heavy chain) (antibody, V domains shown) VH: QVQLVQSGSELKKPGASVRISCKASGYSFTSLSMAWVRQAPGQGLEWMGWISTKSGDPTYAQAFTGRFVFSLDTSVNTAYLQINSLEAGDTAVYYCARGQPPVGWTFDYWGQGTLVTVSS VL: QSALTQPPSASGSPGQSVTISCTGTSSDVGGYNYVSWYQQHPGKAPKLIIYEVSKRPSGVPDRFSGSKSGNTASLTVSGLQAEDEADYYCSSYTSSSTLVFGGGTKLTVL | no binding |

From article PMC12354777 (Nature Communications, 2025)
